The record followed here is paper PMC5141500.

Test [1] deals with NTSR1-EL (baculovirus construct with wild-type ICL3) (rat) (UniProt P20789).
Test [2] deals with NTSR1-ELF (baculovirus construct with wild-type ICL3) (rat) (UniProt P20789).

Gq protein, sequence (P50148 whole entry, looked up): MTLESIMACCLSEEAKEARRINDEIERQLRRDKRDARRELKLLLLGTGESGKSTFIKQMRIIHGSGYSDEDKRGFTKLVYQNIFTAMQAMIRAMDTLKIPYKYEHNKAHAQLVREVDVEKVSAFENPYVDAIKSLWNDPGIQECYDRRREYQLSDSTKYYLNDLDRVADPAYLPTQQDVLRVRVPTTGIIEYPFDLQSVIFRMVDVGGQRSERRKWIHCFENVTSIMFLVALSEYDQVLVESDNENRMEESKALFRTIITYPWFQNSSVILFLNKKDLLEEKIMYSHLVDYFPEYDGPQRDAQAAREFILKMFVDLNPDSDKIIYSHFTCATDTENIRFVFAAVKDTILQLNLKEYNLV

For “Gq protein (from UniProt P50148 1-359) (complex)”, the Fold-stimulation by NTS GTPγS: GDP/[35S]GTPγS exchange on Gq at saturating NTS compared to no ligand, urea-washed P2 insect cell membranes and purified Gq protein in test [1] was 3.3 fold; in test [2] it was 5.6 fold.

Consider neurotensin (NTS) (peptide), for which the EC50 (NTS) GTPγS, half maximal effective concentration of NTS on the exchange of GDP for GTPγS on Gq in test [1] amounted to 5.5 nM.
